What is called EC50 is the concentration needed to bring the measured effect to its halfway point. High values mean weaker potency, low ones greater potency. For orientation: Kd means the equilibrium constant for the complex coming apart. A high value points to weaker binding. For orientation: koff means a measure of how fast the partners let go of each other. For orientation: kon means the second-order rate constant of association. One may read the EC50 (read off the curve) as the midpoint of the concentration-response curve. Low values mean an effect from little substance, high ones a need for much substance.

For one experiment, the target named is T1, huMUC16, AA13789-14451.
T1 construct: also called MUC16 Antigen (human MUC16 AA13789-14451)
T1 chain: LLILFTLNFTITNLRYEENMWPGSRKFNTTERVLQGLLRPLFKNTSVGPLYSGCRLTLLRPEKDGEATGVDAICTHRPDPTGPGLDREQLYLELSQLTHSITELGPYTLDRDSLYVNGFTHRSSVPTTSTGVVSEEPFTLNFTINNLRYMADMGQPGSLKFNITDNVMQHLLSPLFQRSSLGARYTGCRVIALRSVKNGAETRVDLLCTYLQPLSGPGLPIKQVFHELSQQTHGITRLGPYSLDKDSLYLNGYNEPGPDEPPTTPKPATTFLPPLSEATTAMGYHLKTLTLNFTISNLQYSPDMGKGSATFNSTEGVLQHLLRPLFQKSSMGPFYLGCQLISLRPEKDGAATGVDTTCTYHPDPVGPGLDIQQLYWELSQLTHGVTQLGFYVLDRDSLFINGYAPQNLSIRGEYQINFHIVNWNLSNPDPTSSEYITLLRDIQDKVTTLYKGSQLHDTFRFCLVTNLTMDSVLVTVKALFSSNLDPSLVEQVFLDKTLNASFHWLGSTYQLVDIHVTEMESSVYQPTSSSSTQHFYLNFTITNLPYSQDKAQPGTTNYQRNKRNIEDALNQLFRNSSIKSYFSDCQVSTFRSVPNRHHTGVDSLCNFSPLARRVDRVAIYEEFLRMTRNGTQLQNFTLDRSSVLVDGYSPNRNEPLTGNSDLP
The experiment in a line: binding ELISA on huMUC16 AA13789-14451. (In general: An ELISA detects its analyte on a solid surface through an enzyme-linked reagent.)

For experiment [1], the target named is T2, human MUC16 on cells (human, UniProt Q8WXI7 1-14507).
T2 construct: whole, on cells; also called huMUC16; MUC16 on OVCAR3 and SNU216 cells
Nature of the experiment: flow cytometry (GMFI) on OVCAR3 cells, nM is the unit of the x axis Log10[Ab] (nM); curve without upper plateau. (In general: A flow cytometer gives signals particle by particle.)

The target in a further experiment is T3, huMUC16, AA14198-14507.
T3 chain: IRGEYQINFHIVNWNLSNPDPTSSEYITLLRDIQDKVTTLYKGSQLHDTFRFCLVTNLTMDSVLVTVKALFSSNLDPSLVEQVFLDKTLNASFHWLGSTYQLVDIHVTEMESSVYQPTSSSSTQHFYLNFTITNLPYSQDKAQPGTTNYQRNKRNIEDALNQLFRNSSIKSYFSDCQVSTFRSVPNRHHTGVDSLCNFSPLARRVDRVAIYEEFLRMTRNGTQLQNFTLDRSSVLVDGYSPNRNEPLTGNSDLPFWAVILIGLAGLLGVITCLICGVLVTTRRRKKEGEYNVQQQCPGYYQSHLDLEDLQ
The experiment in a line: binding ELISA on huMUC16 AA14198-14507.

The target of experiment [2] is T2, human MUC16 on cells. The experiment in a line: flow cytometry (GMFI) on OVCAR3 cells, nM is the unit of the x axis Log10[Ab] (nM).
The target of experiment [3] is T2, human MUC16 on cells. Nature of the experiment: flow cytometry (MFI GeoMean) on OVCAR3 cells, nM is the unit of the x axis Log10[Ab] (nM).
The target in experiment [4] is T4, HEK293-MUC16 (13810-14507) (human, UniProt Q8WXI7 13810-14507).
T4 construct: range 13810-14507; also called MUC16 overexpressed HEK293 cells
T4 sequence: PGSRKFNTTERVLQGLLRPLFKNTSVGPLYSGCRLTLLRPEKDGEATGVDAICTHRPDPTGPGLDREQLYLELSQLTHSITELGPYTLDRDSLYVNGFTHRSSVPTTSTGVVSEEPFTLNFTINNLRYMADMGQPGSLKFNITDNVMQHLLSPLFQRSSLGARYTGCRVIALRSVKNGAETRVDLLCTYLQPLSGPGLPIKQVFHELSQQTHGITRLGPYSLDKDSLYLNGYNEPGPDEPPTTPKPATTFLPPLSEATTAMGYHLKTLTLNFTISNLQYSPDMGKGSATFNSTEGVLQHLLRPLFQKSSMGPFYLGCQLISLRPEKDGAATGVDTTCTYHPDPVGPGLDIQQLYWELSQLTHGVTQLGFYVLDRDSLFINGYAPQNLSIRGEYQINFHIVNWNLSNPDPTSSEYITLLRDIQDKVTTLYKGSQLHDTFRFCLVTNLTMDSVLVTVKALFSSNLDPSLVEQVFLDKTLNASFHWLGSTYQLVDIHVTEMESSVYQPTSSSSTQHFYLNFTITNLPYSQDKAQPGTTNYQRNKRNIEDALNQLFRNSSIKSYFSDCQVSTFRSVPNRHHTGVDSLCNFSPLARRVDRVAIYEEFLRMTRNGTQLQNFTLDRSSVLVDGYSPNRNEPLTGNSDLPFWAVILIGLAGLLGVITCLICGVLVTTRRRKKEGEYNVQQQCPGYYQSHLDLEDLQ
The experiment in a line: flow cytometry (MFI GeoMean) on HEK293-MUC16 (13810-14507) cells, nM is the unit of the x axis Log10[Ab] (nM).

For experiment [5], the target named is T2, human MUC16 on cells. The experiment in a line: flow cytometry (MFI GeoMean) on SNU216 cells, nM is the unit of the x axis Log10[Ab] (nM).
Another experiment addresses T5, human MUC16 (human).
T5 construct: also called MUC16 antigen of the kinetic assay
The experiment in a line: binding kinetics, sensorgrams in RU in FIG. 14B, model printed: Kinetics 1:1; form of the MUC16 antigen not given.

For experiment [6], the target named is T2, human MUC16 on cells. Nature of the experiment: flow cytometry (GMFI) on OVCAR3 cells, nM is the unit of the x axis Log10[Ab] (nM); curve without upper plateau. The source holds these as a separate data set.
A further experiment concerns the target T6, ROR1 on cells (UniProt Q01973 30-937).
T6 construct: whole, on cells; also called ROR1 endogenous expressed tumor cell A549; ROR1-positive tumor cell lines
Nature of the experiment: flow cytometry (gMFI) on A549 cells.

B1: D41 (antibody, V domains shown)
VH: EVQLLESGGGLVQPGGSLRLSCAASGFTFSSYEMNWVRQAPGKGLEWVGRIKSKTDGGTTDYAAPVKGRFTISRDDSKNTLYLQMNSLKTEDTAVYYCTTDLAAVAGLFDYWGQGTTVTVSS
VL: DIQLTQSPSSLSASVGDRVTITCQASQDISNYLNWYQQKPGKAPKLLIYDASNLETGVPSRFSGSGSGTDFTLTISSLQPEDFATYYCQQSYSTPWKFGQGTKVEIK
notes: Anti-MUC16 mAb
With B1, the binding result is “binds” in the experiment with huMUC16, AA13789-14451 and “no binding (tested: 100 nM)” with huMUC16, AA14198-14507. In addition, the midpoint of the response with human MUC16 on cells [1], the EC50, lay at 23200 pM.

B2: B218 (antibody, V domains shown)
VH: EVQLLESGAEVKKPGSSVKVSCKASGGTFSSYAISWVRQAPGQGLEWMGGIIPIFGTANYAQKFQGRVTITADESTSTAYMELSSLRSEDTAVYYCARGGPHYDFWSGYTPGQHGGAFDIWGQGTMVTVSS
VL: NIQMTQSPSTLSASLGDRVSITCRASQSISGWLAWYQQKPGKAPKLLIYRTSYLESGVPSRFSAGGSGTEFTLTISSLQPDDFATYYCQHYDTFSRAFGQGTKVDIK
notes: Anti-MUC16 mAb; also called MUC16-B218
For the molecule B2, the EC50 in the experiment with human MUC16 on cells [2] was found to be 687 pM; with human MUC16 on cells [3], 907 pM; in [4], 244 pM; with human MUC16 on cells [5], 760 pM. The binding result in the experiment with huMUC16, AA13789-14451 is “binds”; with huMUC16, AA14198-14507, “no binding (tested: 100 nM)”. This molecule registered a Kd with human MUC16 of 6170 pM. Also, in the experiment with human MUC16, the koff came out at 0.0031 s⁻¹. In the experiment with human MUC16, the kon worked out at 502000 M⁻¹ s⁻¹.

B3: D100 (antibody, V domains shown)
VH: QVQLVQSGAEVKKPGSSVKVSCKASGGTFSRYHAISWVRQAPGQGLEWMGGIIPILGTANYAQKFQGRVTITADESTSTAYMELSSLRSEDTAVYYCASGTTAARYYYYYYYMDVWGKGTTVTVSS
VL: NIQMTQSPSSLSASVGDRVTITCQASQDISNYLNWFHQKPGKAPNLLIYDASNLETGVPSRFSGSGSGTDFTFTISSLQPEDIGTYYCQQYDNLPLTFGGGTKVDIK
notes: Anti-MUC16 mAb; also called MUC16-D100
In the case of B3, the 50% effective concentration (EC50) with human MUC16 on cells [2] is 395 pM; with human MUC16 on cells [3], 286 pM; in experiment [4] it was 87.4 pM; with human MUC16 on cells [5], 120 pM. Besides, the binding result with huMUC16, AA13789-14451 is recorded as “binds”; with huMUC16, AA14198-14507, “no binding (tested: 100 nM)”.

B4: B76 (antibody, V domains shown)
VH: QMQLVQSGAEVKKPGSSVKVSCKASGGTFSSYAISWVRQAPGQGLEWMGGIIPIFGTANYAQKFQGRVTITADESTSTAYMELSSLRSEDTAVYYCARSITDYYDSSGYYFRPHFNTGYYYGMDVWGQGTTVTVSS
VL: NIQLTQSPSSLSASVGDRVTITCRASQGINNYLAWYQQKPGKVPKLLIYAASTLQSGVPSRFSGSGSGTDFTLTITNLQPDDFATYYCQQYDTFSETFGPGTKVEIK
notes: Anti-MUC16 mAb
Regarding B4, the EC50 in the experiment with human MUC16 on cells [6] came out at 16800 pM. For the same molecule, the binding result is recorded as “binds” with huMUC16, AA13789-14451 and “no binding (tested: 100 nM)” with huMUC16, AA14198-14507.

B5: 3C5 (antibody, V domains shown)
VH: EVKLVESGGGLVKPGGSLKLSCAASGFTFSSYAMSWVRQTPEKRLEWVSSISSGGTTYYPDTVKGRFTISRDNARNILYLQMSSLRSEDTAMYYCARDSLYYGSSLYYAMDYWGQGTSVTVSS
VL: DIKMTQSPSSMYASLGERVSITCRASQDIYSYLSWFQQKPGKSPKTLIYRANRLVDGVPSRFSGSGSGQDYSLTISSLEYEDMGIYYCLQYDEFPYTFGGGTKLEIK
notes: Anti-ROR1 mAb (chimeric section 9.1); also called anti-ROR1 mAb 3C5
In the case of B5, in the experiment with ROR1 on cells, the “EC50 (read off the curve)” value is about 40 pM.

B6: D57 (antibody, V domains shown)
VH: EVQLLESGGGLVTPGGSLRLSCTASGFTFSDYYLSWVRQAPGKGLEWMGGIIPIFGTANYAQKFQGRVTITADESTSTAYMELSSLRSEDTAVYYCARGGPHYDFWSGYTPGQHGGAFDIWGQGTMVTVSS
VL: EIVLTQSPGTLSLSPGERATLSCRASQSVSSSYLAWYQQKPGQAPRLLIYGASSRATGIPDRFSGSGSGTDFTLTISRLEPEDFAVYYCQQRSNWRNTFGQGTRLEIK
notes: Anti-MUC16 mAb; also called MUC16-D57
For the molecule B6, the EC50 with human MUC16 on cells [2] was 526 pM; with human MUC16 on cells [3], 763 pM; in experiment [4], 579 pM; with human MUC16 on cells [5] it was 1240 pM. The molecule also registered a Kd with human MUC16 of 5260 pM. In the experiment with human MUC16, this molecule registered a koff of 0.0035 s⁻¹.

B7: humanized 3C5 anti-ROR1 mAb (antibody, V domains shown)
VH: EVQLVESGGGLVKPGGSLRLSCAASGFTFSSYAMSWVRQAPGKRLEWVSSISSGGTTYYPDTVKGRFTISRDNAKNSLYLQMNSLRAEDTAVYYCARDALYYGSSLYYAMDYWGQGTLVTVSS
VL: DIQMTQSPSSLSASVGDRVTITCRASQDIYSYLSWFQQKPGKAPKTLIYRANRLVDAVPSRFSGSGSGQDYTLTISSLQPEDFATYYCLQYDEFPYTFGQGTKLEIK
notes: also called h3C5; h3C5-PTM
In the case of B7, the “EC50 (read off the curve)” value with ROR1 on cells is about 40 pM.

B8: B195 (antibody, V domains shown)
VH: EVQLVQSGAEVKKPGASVKVSCKASGGTFSSYAISWVRQAPGQGLEWMGGIIPIFGTANYAQKFQGRVTITADESTSTAYMELSSLRSEDTAVYYCAREGPDYGDYSWSMDYYYGMDVWGQGTMVTVSS
VL: EIVMTQSPGTLSLSPGERATLSCRASQSVNSRYLAWYQHKPGQAPRLLMYGASTRATGIPDRFSGSGSGTDFTLTISRLEPEDFAVYYCQQYGTFSITFGQGTRLEIK
notes: Anti-MUC16 mAb
On to B8, for which the EC50 with human MUC16 on cells [6] turned out to be 15100 pM. For the same molecule, the binding result is reported as “binds” with huMUC16, AA13789-14451 and “no binding (tested: 100 nM)” in the experiment with huMUC16, AA14198-14507.

B9: D79 (antibody, V domains shown)
VH: QMQLVQSGAEVKKPGSSVKVSCKASGGTFSSYAISWVRQAPGQGLEWMGGIIPIFGTANYAQKFQGRVTITADESTSTAYMELSSLRSEDTAVYYCARDSGSSITMVRGGDYYYMDVWGKGTTVTVSS
VL: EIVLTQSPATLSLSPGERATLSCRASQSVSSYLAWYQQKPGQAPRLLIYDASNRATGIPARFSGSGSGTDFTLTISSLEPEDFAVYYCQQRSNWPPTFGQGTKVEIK
notes: Anti-MUC16 mAb
B9 registered an EC50 with human MUC16 on cells [6] of 40600 pM. Moreover, the binding result with huMUC16, AA13789-14451 was “binds”; with huMUC16, AA14198-14507, “no binding (tested: 100 nM)”.

For the origin of these results see patent publication US20260078196A1 (TJ BIOPHARMA SHANGHAI, published 2026).
